Experimental data: patent publication US20260184782A1 (TWIST BIOSCIENCE, published 2026)
Changes are numbered by the printed parent chain. One block for each binder: values may come before it.

Biological target: T1, recombinant human TIGIT (human, UniProt Q495A1 22-141, limits assumed)
T1 construct: recombinant human TIGIT used in Carterra SPR; also called hTIGIT
T1 sequence (looked up): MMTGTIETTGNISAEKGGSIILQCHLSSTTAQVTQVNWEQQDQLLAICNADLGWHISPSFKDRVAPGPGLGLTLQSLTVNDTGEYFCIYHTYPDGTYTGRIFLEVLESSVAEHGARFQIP
Test: SPR Carterra, average
Description: Binding affinities of VHH-Fc proteins to recombinant human TIGIT were measured by SPR using a Carterra instrument (Table 10A). […] Average values reported from measurements from 1-2 samples.

Kd: 9.63 nM
koff: 0.0012 s⁻¹
kon: 125000 M⁻¹ s⁻¹
B1: TIGIT-SC117 (Fc fusion)
VHH: EVQLVESGGGLVQPGGSLRLSCAASGNTFSGGFMGWFRQAPGKEREWVASVLRGGYTWYADSVKGRFTISADNSKNTAYLQMNSLKPEDTAVYYCDAADYWGQGTLVTVSS
notes: VHH-Fc fusion in assay

Kd: 8.42 nM
koff: 0.00241 s⁻¹
kon: 262000 M⁻¹ s⁻¹
B2: TIGIT-SC115 (Fc fusion)
VHH: B1 VHH with D96A, A97G, A98T, D99G, Y100L
notes: VHH-Fc fusion in assay

Kd: 25.2 nM
koff: 0.00511 s⁻¹
kon: 149000 M⁻¹ s⁻¹
B3: TIGIT-SC57 (Fc fusion)
VHH: B1 VHH with D96T, A97T, A98Y, D99R, Y100G
notes: VHH-Fc fusion in assay

Kd: 4.08 nM
koff: 0.000696 s⁻¹
kon: 209000 M⁻¹ s⁻¹
B4: TIGIT-SC116 (Fc fusion)
VHH: B1 VHH with N27F, G31P, G32S, F33W
notes: VHH-Fc fusion in assay

Kd: 1.88 nM
koff: 0.000483 s⁻¹
kon: 257000 M⁻¹ s⁻¹
B5: TIGIT-SC113 (Fc fusion)
VHH: EVQLVESGGGLVQPGGSLRLSCAASGFTLNDYAMGWFRQAPGKERELVAWIARYDGSTLYADSVKGRFTISADNSKNTAYLQMNSLKPEDTAVYYCTWGDGYNLGAFDIWGQGTLVTVSS
notes: VHH-Fc fusion in assay

Kd: 978 nM
koff: 0.206 s⁻¹
kon: 211000 M⁻¹ s⁻¹
B6: TIGIT-SC169 (Fc fusion)
VHH: B5 VHH with W98T, G99E, D100L, G101R, Y102W, N103E, G105Q, A106Q, F107P, I109Y
notes: VHH-Fc fusion in assay

Kd: 13.2 nM
koff: 0.00393 s⁻¹
kon: 297000 M⁻¹ s⁻¹
B7: TIGIT-SC112 (Fc fusion)
VHH: B5 VHH with F27R, N30R, D31R, A33V, W50A, A52D, R53W, Y54S, D55G, T58A
notes: VHH-Fc fusion in assay

Kd: 1.47 nM
koff: 8.98e-05 s⁻¹
kon: 60900 M⁻¹ s⁻¹
B8: TIGIT-SC134 (Fc fusion)
VHH: EVQLVESGGGLVQPGGSLRLSCAASGFTLENNMMGWFRQAPGKEREFVAAISASGTLRAYADSVKGRFTISADNSKNTAYLQMNSLKPEDTAVYYCARWYRVNNWSPGYYYYMDVWGQGTLVTVSS
notes: VHH-Fc fusion in assay

Kd: 0.713 nM
koff: 0.00551 s⁻¹
kon: 7.72e+06 M⁻¹ s⁻¹
B9: TIGIT-SC48 (Fc fusion)
VHH: EVQLVESGGGLVQPGGSLRLSCAASGRTSDIYGMGWFRQAPGKEREAVASIWRSGGNTYYADSVKGRFTISADNSKNTAYLQMNSLKPEDTAVYYCASSTLDVWGQGTLVTVSS
notes: VHH-Fc fusion in assay

Kd: 3.08 nM
koff: 0.000199 s⁻¹
kon: 60100 M⁻¹ s⁻¹
B10: TIGIT-SC13 (Fc fusion)
VHH: EVQLVESGGGLVQPGGSLRLSCAASGRTFSFMGWFRQAPGKEREWVASVLRGGYTWYADSVKGRFTISADNSKNTAYLQMNSLKPEDTAVYYCATESMDYWGQGTLVTVSS
notes: VHH-Fc fusion in assay

Kd: 1.07 nM
koff: 0.0012 s⁻¹
kon: 1.12e+06 M⁻¹ s⁻¹
B11: TIGIT-SC19 (Fc fusion)
VHH: EVQLVESGGGLVQPGGSLRLSCAASGRTYDAMGWFRQAPGKEREWVASVLRGGYTWYADSVKGRFTISADNSKNTAYLQMNSLKPEDTAVYYCARDVDYRFDSWGQGTLVTVSS
notes: VHH-Fc fusion in assay

Kd: 3.71 nM
koff: 0.00982 s⁻¹
kon: 3e+06 M⁻¹ s⁻¹
B12: TIGIT-SC54 (Fc fusion)
VHH: EVQLVESGGGLVQPGGSLRLSCAASGFSFDDYVMGWFRQAPGKERELVAVIVGEAITRYADSVKGRFTISADNSKNTAYLQMNSLKPEDTAVYYCARRGGSGRAFDIWGQGTLVTVSS
notes: VHH-Fc fusion in assay

Kd: 5.15 nM
koff: 0.00981 s⁻¹
kon: 2.1e+06 M⁻¹ s⁻¹
B13: TIGIT-SC51 (Fc fusion)
VHH: EVQLVESGGGLVQPGGSLRLSCAASGRTEANYAMGWFRQAPGKEREFVAAISWDGGATAYADSVKGRFTISADNSKNTAYLQMNSLKPEDTAVYYCGDYEGHWGQGTLVTVSS
notes: VHH-Fc fusion in assay

Kd: 5.49 nM
koff: 0.0103 s⁻¹
kon: 1.87e+06 M⁻¹ s⁻¹
B14: TIGIT-SC68 (Fc fusion)
VHH: B13 VHH with R27H, E29F, A30R, N31G, F47A, D54S, G56D, A57N, A59Y
notes: VHH-Fc fusion in assay

Kd: ≤ 3.15 nM
koff: ≤ 1e-05 s⁻¹
kon: 3180 M⁻¹ s⁻¹
B15: TIGIT-SC84 (Fc fusion)
VHH: EVQLVESGGGLVQPGGSLRLSCAASGGTFTIYPMGWFRQAPGKEREWVAGINEYGGRYADSVKGRFTISADNSKNTAYLQMNSLKPEDTAVYYCARDLNAMGDAYDIWGQGTLVTVSS
notes: VHH-Fc fusion in assay

Kd: 31.6 nM
koff: 0.00265 s⁻¹
kon: 105000 M⁻¹ s⁻¹
B16: TIGIT-SC160 (Fc fusion)
VHH: EVQLVESGGGLVQPGGSLRLSCAASGNTFSGGFMGWFRQAPGKEREWVASVLRGGYTWYADSVKGRFTISADNSKNTAYLQMNSLKPEDTAVYYCAREGRSSSPWFDPWGQGTLVTVSS
notes: VHH-Fc fusion in assay

Kd: 126 nM
koff: 0.00647 s⁻¹
kon: 51300 M⁻¹ s⁻¹
B17: TIGIT-SC155 (Fc fusion)
VHH: B16 VHH with R97G, E98D, G99Y, S101G, S102F, S103E, P104M, W105A
notes: VHH-Fc fusion in assay

Kd: 45.2 nM
koff: 0.00227 s⁻¹
kon: 50700 M⁻¹ s⁻¹
B18: TIGIT-SC114 (Fc fusion)
VHH: B16 VHH with R97T, E98V, R100G, S101R, S102Q, S103R, P104T, W105L, P108D
notes: VHH-Fc fusion in assay

Kd: 1.44 nM
koff: 0.000765 s⁻¹
kon: 531000 M⁻¹ s⁻¹
B19: TIGIT-SC110 (Fc fusion)
VHH: B16 VHH with E98D, G99H, R100T, S101A, S102M, S103V, P104A, W105P, P108Y
notes: VHH-Fc fusion in assay

Kd: 19.4 nM
koff: 0.00129 s⁻¹
kon: 66700 M⁻¹ s⁻¹
B20: TIGIT-SC6 (Fc fusion)
VHH: B16 VHH with R97I, E98S, G99P, R100V, S101A, S102W, S103H, P104A, W105K, P108S
notes: VHH-Fc fusion in assay

Kd: 14.6 nM
koff: 0.00144 s⁻¹
kon: 92000 M⁻¹ s⁻¹
B21: TIGIT-SC159 (Fc fusion)
VHH: B16 VHH with N27F, S30D, G31R, G32S, F33W
notes: VHH-Fc fusion in assay

Kd: 143 nM
koff: 0.00154 s⁻¹
kon: 18200 M⁻¹ s⁻¹
B22: TIGIT-SC158 (Fc fusion)
VHH: B16 VHH with N27F, G31P, G32S, F33W
notes: VHH-Fc fusion in assay

Kd: 22.5 nM
koff: 0.00174 s⁻¹
kon: 77200 M⁻¹ s⁻¹
B23: TIGIT-SC25 (Fc fusion)
VHH: EVQLVESGGGLVQPGGSLRLSCAASGNTFSGGFMGWFRQAPGKEREWVASVLRGGYTWYADSVKGRFTISADNSKNTAYLQMNSLKPEDTAVYYCTTVGYGDYWGQGTLVTVSS
notes: VHH-Fc fusion in assay

Kd: 1400 nM
koff: 0.197 s⁻¹
kon: 141000 M⁻¹ s⁻¹
B24: TIGIT-SC42 (Fc fusion)
VHH: B23 VHH with S50T, T96A, T97S, V98G, Y100F, G101L, D102A, Y103S
notes: VHH-Fc fusion in assay

Kd: 51 nM
koff: 0.00441 s⁻¹
kon: 90200 M⁻¹ s⁻¹
B25: TIGIT-SC171 (Fc fusion)
VHH: EVQLVESGGGLVQPGGSLRLSCAASGFTFDRSWMGWFRQAPGKEREWVASVLRGGYTWYADSVKGRFTISADNSKNTAYLQMNSLKPEDTAVYYCATERRLGVWGQGTLVTVSS
notes: VHH-Fc fusion in assay

Kd: 401 nM
koff: 0.125 s⁻¹
kon: 313000 M⁻¹ s⁻¹
B26: TIGIT-SC191 (Fc fusion)
VHH: B25 VHH with T28V, D30S, R31S, S32D, T97R, E98G, R99D, R100S, L101M, G102D
notes: VHH-Fc fusion in assay

Kd: 2.7 nM
koff: 0.0007 s⁻¹
kon: 260000 M⁻¹ s⁻¹
B27: TIGIT-SC20 (Fc fusion)
VHH: EVQLVESGGGLVQPGGSLRLSCAASGNTFSGGFMGWFRQAPGKEREWVASVLRGGYTWYADSVKGRFTISADNSKNTAYLQMNSLKPEDTAVYYCATPRGYWGQGTLVTVSS
notes: VHH-Fc fusion in assay

Kd: 3.08 nM
koff: 0.000894 s⁻¹
kon: 506000 M⁻¹ s⁻¹
B28: TIGIT-SC24 (Fc fusion)
VHH: EVQLVESGGGLVQPGGSLRLSCAASGFTFDRSWMGWFRQAPGKEREVVASITSGGSTYYADSVKGRFTISADNSKNTAYLQMNSLKPEDTAVYYCAADVWYGSTWRNWGQGTLVTVSS
notes: VHH-Fc fusion in assay

Kd: 4.74 nM
koff: 0.0062 s⁻¹
kon: 1.31e+06 M⁻¹ s⁻¹
B29: TIGIT-SC31 (Fc fusion)
VHH: EVQLVESGGGLVQPGGSLRLSCAASGRAFESYAMGWFRQAPGKERELVATIGWSGTDYADSVKGRFTISADNSKNTAYLQMNSLKPEDTAVYYCAKGYTSGLSDWGQGTLVTVSS
notes: VHH-Fc fusion in assay

Kd: 4.68 nM
koff: 0.00112 s⁻¹
kon: 344000 M⁻¹ s⁻¹
B30: TIGIT-SC121 (Fc fusion)
VHH: EVQLVESGGGLVQPGGSLRLSCAASGFTFSPSWMGWFRQAPGKEREWVASVLRGGYTWYADSVKGRFTISADNSKNTAYLQMNSLKPEDTAVYYCTTEGFDPWGQGTLVTVSS
notes: VHH-Fc fusion in assay

Kd: 84.6 nM
koff: 0.00184 s⁻¹
kon: 21800 M⁻¹ s⁻¹
B31: TIGIT-SC60 (Fc fusion)
VHH: B30 VHH with T96A, T97R, E98D, G99D, F100L, P102Y
notes: VHH-Fc fusion in assay

Kd: 4.37 nM
koff: 0.00743 s⁻¹
kon: 1.7e+06 M⁻¹ s⁻¹
B32: TIGIT-SC111 (Fc fusion)
VHH: B30 VHH with F27D, P31G, S32G, W33F, T97R, E98G, F100M, P102V
notes: VHH-Fc fusion in assay

Kd: 77.1 nM
koff: 0.00309 s⁻¹
kon: 42500 M⁻¹ s⁻¹
B33: TIGIT-SC188 (Fc fusion)
VHH: B30 VHH with F27N, P31G, S32G, W33F, E98D, G99S, F100L, D101P, P102G
notes: VHH-Fc fusion in assay

Kd: 5.79 nM
koff: 0.00137 s⁻¹
kon: 237000 M⁻¹ s⁻¹
B34: TIGIT-SC98 (Fc fusion)
VHH: B30 VHH with F27N, P31G, S32G, W33F
notes: VHH-Fc fusion in assay

Kd: 17.2 nM
koff: 0.000586 s⁻¹
kon: 34000 M⁻¹ s⁻¹
B35: TIGIT-SC187 (Fc fusion)
VHH: B30 VHH with E98D, G99S, F100L, D101P, P102G
notes: VHH-Fc fusion in assay

Kd: 4.45 nM
koff: 0.00416 s⁻¹
kon: 1.01e+06 M⁻¹ s⁻¹
B36: TIGIT-SC46 (Fc fusion)
VHH: EVQLVESGGGLVQPGGSLRLSCAASGRTFSNYVMGWFRQAPGKERELVASISSFGSTYYADSVKGRFTISADNSKNTAYLQMNSLKPEDTAVYYCARSGGFLSDWGQGTLVTVSS
notes: VHH-Fc fusion in assay
